Data published in a protein production outcome set (Wang et al. 2014).

Experiment: label from the status in PepcDB records
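Further: failed if final PepcDB status was selected cloned or expressed and not failed if soluble or beyond.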

| Sequence | protein production |
| --- | --- |
| MKKVRFLLLAAMVAMFTGCQKEVAEQELDNNKPTPTGDTRIIIEGEGMIGPVTRSSDGKVEFEGGYATGAGLYNGDAQPKVAAHPDAGYEVNYFYGGPENELHRYDYAQSGSSTFDVKLKGEDHTFRCGFKEKKRNLTVNTGTGGSVSPAGTNSYRVEKAISITATPDSGYEFAGWTITEGDVTIENPGSPATTATLHNDNSTITANFKSGAELVFTVRASANKIVPMPVLGSGPYIIDYGDGTVAQEVDLRAPGYTQYPGSYHTYSADGEYTVTIKGPAATAFSFRGTRNSDLQYTNPCPAKSILKNTIDISCVTSLENAFSGMKSLESIKCDLFESCKGRVTTCANIFDQCTNLHTIYNGLFEGFDKCTDFSLAFHYTALNSIPANTFRGCSSAVKFNSTFSAIPNILSIPAGLFDDCVNAQEFASTFELLNISTVPERLFAKCVKATFFRGTFRQSHVTTVPGNVFENCRAIENVSSCFENCSWITSLPEMWNTSLYPKIKTYNAFAKNCNKASNYSAVPAAWK | failed |
| MEPKDTTTNDAFKGFTNTACPFLPCHKGVKREFNCLFCYCPLIAYECPGPYQVYTDKNGLTRKDCTNCTLPHDGYLASWNFIQKWLERPVIWSGAAQTTPPTRRPGRAPGDGDEELEHHHHHH | not failed |
| MDKKAMWDRFYTENGSKGQFKNFEWFFGFPSVKDLVLPALQAMSCSHSGPLHILDMGCGTSALGPCIYSTSPCAVRVTCADISPVAVKLMEEHTKSTSTQPCNPSSALVFLELDCTQMTGHFKSRSLDLILDKGTTDALVRSKEGQVKAGQILRQSLQVLRPSGSFLQFSDEDPDARLIWLEREVQGAEVTADVGVQEIGELRGVSYFCYQISPRSRPHS | failed |
| MFTGSIVALVTPMDEKGNVSRSCLKKLIDYHVANGTSAIVSVGTTGESATLSHDEHGDVVMMTLELADGRIPVIAGTGANATAEAISLTQRFNDSGIVGCLTVTPYYNRPTQEGLFQHFKAIAEHTDLPQILYNVPSRTGCDMLPETVGRLAEIKNIIAIKEATGNLTRVHQIKELVSDDFILLSGDDASALDFMQLGGHGVISVTANVAAREMADMCKLAAEGQFAEARAINQRLMPLHNKLFVEPNPIPVKWACKALGLVATDTLRLPMTPITDHGRDIVKAALQHAGLL | not failed |
| MFASCHCVPRGRRTMKMIHFRSSSVKSLSQEMRCTIRLLDDSEISCHIQRETKGQFLIDHICNYYSLLEKDYFGIRYVDPEKQRHWLEPNKSIFKQMKTHPPYTMCFRVKFYPHEPLKIKEELTRYLLYLQIKRDIFHGRLLCSFSDAAYLGACIVQAELGDYDPDEHPENYISEFEIFPKQSQKLERKIVEIHKNELRGQSPPVAEFNLLLKAHTLETYGVDPHPCKDSTGTTTFLGFTAAGFVVFQGNKRIHLIKWPDVCKLKFEGKTFYVIGTQKEKKAMLAFHTSTPAACKHLWKCGVENQAFYKYAKSSQIKTVSSSKIFFKGSRFRYSGKVAKEVVEASSKIQREPPEVHRANITQSRSSHSLNKQLIINMEPLQPLLPSPSEQEEELPLGEGVPLPKEENISAPLISSSPVKAAREYEDPPSEEEDKIKEEPLTISELVYNPSASLLPTPVDDDEIDMLFDCPSRLELEREDTDSFEDLEADENAFLIAEEEELKEARRALSWSYDILTGHIRVNPLVKSFSRLLVVGLGLLLFVFPLLLLLLESGIDLSFLCEIRQTPEFEQFHYEYYCPLKEWVAGKVHLILYMLGCS | failed |
| MGHHHHHHSHMTENDLASLFNNSALFKALGFNIIEINDDAIVMEINDDNPCHQGGFGVLTSLGINGAVISAALESAIGLCGFNALGREPAGVVELSVKILRVIRKKPCRVEARVDNKNNNVAFISATLISARGGICATGTGIVLKSKTTEATQ | not failed |
| MKPIVIKRDGSKAPFNRDRIQAAVESAAEHADQEIAIYALNVALAVELKLRDYDEVHITEIQTLVENELMQGPYKALARSYIEYRHDRDVAREKQSK | failed |
| MVSYKILSVANKLKNIRDKYGLSQEDLAGNEITRNLISQIEHNKANLTRSAAEIMLKNLKKICDKKNVQVDEDINYLMEDEKSQAIKVLDKYIDDLRDLTIYKDNVFINKLREVEDFLVTWDFRDKKITIFELAGDYFSSTNDFYNASLYYEKAKALIDINIYSDNIVHILRKLSMTYYYMLRYQDDINCCEFALKQFKNMDEEYRCIFLFNSSLCYGQLKKYDLALKRLNEVESIIKNIDQNKYYEVLIQKAICYQWMKEYQKSLDIYNKLLESIDKSDYEKYLFILVNSSDIYVENSNFEKAESNLRIILENINNLNESSTLLPSTYLEMSRILKKLGYTKDAELYCLKSLNYAKRNTHYYLVNDIYGELLDIYKTLNVPEKVQTIKDEFFSNSSRDKNLNSKLMFKLLDFYFATNDIHSIKEIYDFSKNFIQERMINLCY | failed |
| MESLRSERNQYRILVDITNSVLAHLDMDGLISEVSKEIHRFFGLNHISLMLCRTSSQNSHEGILYSSRYQTGKSVIRQQRKFSSANNKAEEIIHQNKPVLIDINKEDQDDVLIKRLVKQNMQTALLLPLAFNRKPLGLLILAHEISSVFTEETCQLLQQIAARIGIAIENAAAYEEITHLKDS | not failed |
| MGPLVKEKYEEVEQIPLKKPHIVSLIGGFGYREPIFRKVLTTAALDSGINYTLISGPSLDPSKFKEIPKNVQILRFVGDTFPYIRSSDAVIAPGGHSTMMEALSFGTPILSFPDEGHSEQENNAAVIEEEGYGRMLSYSTPPEVILECIREVLEDKKYRDKVKRLQRLASELDGLEHHHHHH | not failed |
| MEDLTASVTNRTVSLPLSCVTTDFGLGVIYASKNQESKTTREKPMLVTLNSSLEHTYQKDFKSLREILSRKVAWQTEAVNAISQIICGCKTDSTRRNQASGIWLALLGPDKVGKKKVAMTLSEVFFGGKVNYICVDFGAEHCSLDDKFRGKTVVDYVTGELSRKPHSVVLLENVEKAEFPDQMRLSEAVSTGKIRDLHGRVISMKNVIVVVTSGIAKDNATDHVIKPVKFPEEQVLSARSWKLQIKLGDATKFGVNKRKYELETAQRAVKVQRSYLDLNLPVNETEFSPDHEAEDRDAWFDEFIEKVDGKVTFKPVDFDELAKNIQEKIGSHFERCFGSETHLELDKEVILQILAASWSSLSSGEEEGRTIVDQWMQTVLARSFAEAKQKYGSNPMLGVKLVASSSGLASGVELPAKVDVIW | failed |
| MAVIADPETAQGFRLAGLEGYGASSAEEAQSLLETLVERGGYALVAVDEALLSDPERAVERLMRGRDLPVLLPIAGLKEAFQGHDVEGYMRELVRKTIGFDIKLLEHHHHHH | failed |
| MSKKSGLSFLWLSAVAFVIDLLTKYIVVQKFDLYESVNVLPVFNLTYVRNYGAAFSFLADHSGWQQYFFILLALAISGMLVYFLAKNNAEQKIQNSAYALIIGGALANMVDRAYNGFVVDFFDFYWDIYHYPVFNIADIAICIGAGLLVLDAFKSEKKKVQDKQVEKCGQK | failed |
| MQTVGSFSEFLDDMVGRYGPRPAIQYRPRYRTLRWSYLELGTHAAKLASLLDEHGVGSGDRVFLSAENSPHWVAAFFAIAARGAVIVPLNPRSPPEQLANLVRSAGPSLVLASPRRRWEGPPLPVVDIERSGRVPSNRPATRTGPARLAEIIYTSGTTGDPKGVMLTHANLLSDLSAVARAIPLAPDDHVLSLVPLFHVYGQMTSLFCPLAAGCPVSYLTTPTTRSVLEALTHTPVTHLVAVPEVLKTMMDRLESRIGRIPGFLWPLLRGRIRARISGSLRTIVCGGAPLDPVVEEKWWALGFQVLQGYGLTETSPVIAANTPQAHRIGSVGKPLDEVELRIASDGEILVKGPMVMAGYFRDPARTEAAFADGWLKTGDAGRLDADGFLYVYGRKRYMILGPGGENVFPEDIEAVLNRTAGVTDCAVVGLESGGRTLVHAVLLADADEARAAAIVAEANRHLAPHQRIVSWSLWPEPDFPRSVTRKVKKDEVLGRLRREPSTQAVPVGRSTPLRLLLAQVAGTEAGALSDDTRLVPDLGLDSLLRIELVARIEEDLGVCLDEIDIGPLTTVADLENLLVRRQDRMPRVDAHPRWSLSPWASRLRPLAQKVFLQWWIAPFCRLRVSGLEHLAALDGPVIFMANHRSYLDSAVASFALPDRFRYRLAIAAATGVLYTRYRWAVPIGELSLNAFPLPSGPDENIRPGLELIGRLLDDGWNVLIFPEGQMNRGGLGIQPLRRGAGTIGVDMGVPVVPLVIEGTEKVMPPGRIVPRAAAPVSVRFGAPLRAGEAEPHGRMLARIEDALRRLLENSPLEHHHHHH | failed |
